Test results from PMC9909464, “The human MRS2 magnesium-binding domain is a regulatory feedback switch for channel activity” (Life Science Alliance, 2023).

What was measured:
[1] = molecular target: the molecule itself; experiment: dynamic light scattering; 0.5 mg/ml in 20 mM Tris, 150 mM NaCl, 1 mM DTT, 10 mM CHAPS, pH 8.0, 37°C; no divalent cations (5 mM MgCl2 or 5 mM CaCl2 gave no change); higher order oligomers
[2] = molecular target: the molecule itself; experiment: SEC-MALS; Superdex 200 Increase 10/300 GL, 20 mM Tris, 150 mM NaCl, 1 mM DTT, pH 8.0, ~10°C; no divalent cations; injected at 0.45-5 mg/ml; monomer to dimer

Row | Protein | binding result [1] | stoichiometry N [2]
1 | full-length human MRS2 excluding the mitochondrial targeting sequence, MRS2_(58–443) (natural protein, UniProt Q9HD23 58-443, looked up, in CHAPS micelles in the assay; also called full-length MRS2; source: E. coli BL21 (DE3), purified as the NTD with 10 mM CHAPS in elution and SEC buffers; not shown: His6, N-terminal, cleaved) DRLRVAGEVHRFRTSDVSQATLASVAPVFTVTKFDKQGNVTSFERKKTELYQELGLQARDLRFQHVMSITVRNNRIIMRMEYLKAVITPECLLILDYRNLNLEQWLFRELPSQLSGEGQLVTYPLPFEFRAIEALLQYWINTLQGKLSILQPLILETLDALVDPKHSSVDRSKLHILLQNGKSLSELETDIKIFKESILEILDEEELLEELCVSKWSDPQVFEKSSAGIDHAEEMELLLENYYRLADDLSNAARELRVLIDDSQSIIFINLDSHRNVMMRLNLQLTMGTFSLSLFGLMGVAFGMNLESSLEEDHRIFWLITGIMFMGSGLIWRRLLSFLGRQLEAPLPPMMASLPKKTLLADRSMELKNSLRLDGLGSGRSILTNR | binds | –
2 | human MRS2 amino terminal domain, MRS2_(58–333) (domain or fragment, UniProt Q9HD23 58-333, looked up, Cloned into pET-28a by NdeI and XhoI; also called MRS2 NTD; NTD; source: E. coli BL21 (DE3), purified (nickel-NTA, thrombin cleavage, SEC S200); not shown: His6, N-terminal, cleaved) DRLRVAGEVHRFRTSDVSQATLASVAPVFTVTKFDKQGNVTSFERKKTELYQELGLQARDLRFQHVMSITVRNNRIIMRMEYLKAVITPECLLILDYRNLNLEQWLFRELPSQLSGEGQLVTYPLPFEFRAIEALLQYWINTLQGKLSILQPLILETLDALVDPKHSSVDRSKLHILLQNGKSLSELETDIKIFKESILEILDEEELLEELCVSKWSDPQVFEKSSAGIDHAEEMELLLENYYRLADDLSNAARELRVLIDDSQSIIFINLDSHRN | – | 2
3 | MRS2_(58–333) D216A/D220A (domain or fragment, human, UniProt Q9HD23 58-333, looked up, also called D216A/D220A MRS2 NTD double mutant; not shown: His6, N-terminal, cleaved) DRLRVAGEVHRFRTSDVSQATLASVAPVFTVTKFDKQGNVTSFERKKTELYQELGLQARDLRFQHVMSITVRNNRIIMRMEYLKAVITPECLLILDYRNLNLEQWLFRELPSQLSGEGQLVTYPLPFEFRAIEALLQYWINTLQGKLSILQPLILETLAALVAPKHSSVDRSKLHILLQNGKSLSELETDIKIFKESILEILDEEELLEELCVSKWSDPQVFEKSSAGIDHAEEMELLLENYYRLADDLSNAARELRVLIDDSQSIIFINLDSHRN | – | 2
